Assay [1] has as its target T1, recombinant human tumor necrosis factor-α (Biosource, USA) (human, UniProt P01375 77-233).
T1 construct: also called hTNF-α; TNF-α
As to the kind of experiment: competitive ELISA (Friguet method), antibody pre-incubated with soluble hTNF-α, plate coated with hTNF-α. Here is the method: For antibody quantification, 100 ng of goat anti-human immunoglobulin G.A.M (Zymed Laboratories Inc., USA) was distributed into each well of a microplate (Dynatech Laboratories Inc., USA) and the well plate was kept at 4° C. overnight to coat it with the immunoglobulin. At this time, mouse monoclonal antibody TSK114 was used as a control.
Each of the reactants was added to the well plate coated with 0.4 μg of the antigen and the well plate was kept at 37° C. for about 1.5 hrs. A goat anti-human polyclonal antibody (BioRad, USA) conjugated with horseradish peroxidase was diluted at a ratio of 1:1000 and 100 μl of the diluted antibody solution was added to each well. The well plate was kept at 37° C. for 1 hr. After the reaction was completed, the optical density of each well was measured using a horseradish peroxidase substrate kit (BioRad, USA).
Concentrations of the antibody bound to the antigen and the unbound antibody were calculated from the measured optical density, and antigen-binding affinity of the humanized antibodies were determined therefrom (Friguet B. et al., J. Immunol. Meth., 77: 305-319, 1985).
On the technique in general: An ELISA detects its analyte on a solid surface through an enzyme-linked reagent.

Assay [2] concerns the target T1, recombinant human tumor necrosis …. As to the kind of experiment: cell-based or functional assay.
Assay [3] shares this target. As to the kind of experiment: SPR (Biacore2000), hTNF-α immobilized on CM5 chip, antibody 25-400 nM as analyte. As for the experimental part:
(§1) Then, association and dissociation constants of the reactions were measured by Biacore2000 (Biacore, Sweden).
On the technique in general: SPR reads the build-up and loss of mass on a sensor chip optically.

The target is the same in assay [4]. Briefly: SPR (Biacore2000), hTNF-α immobilized. Here is the method: as §1

This is an account of results in patent publication US20080008703A1 (YUHAN, published 2008).

The Kd is the free concentration of one partner at which half of the binding sites on the other are occupied at equilibrium, for simple one-to-one binding. What is called koff is a measure of how fast the partners let go of each other. Broadly, the kon is the rate constant with which the complex forms.

T1 sequence (P01375 77-233 limits assumed): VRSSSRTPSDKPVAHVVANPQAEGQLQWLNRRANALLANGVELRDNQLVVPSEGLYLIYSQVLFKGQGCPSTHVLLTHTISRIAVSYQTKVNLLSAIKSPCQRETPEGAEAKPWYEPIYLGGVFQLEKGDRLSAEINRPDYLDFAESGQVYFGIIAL

B1: mouse monoclonal antibody TSK114 (antibody, V domains shown)
VH: QVQLVQSGPELKKPGETVKISCKASGYTFTHYGMNWVKQAPGEGLKWMGWINTNTGEPRYDEEFKGRFAFSLETSASTAYLQINNLRREDTATYFCARYDSRGFDCWGQGTTLTVSS
VL: QIVLTQSPAIMSASLGERVTMTCTASSSISYNYFHWYQQRPGSSPKLWIYSSSNLASGVPPRISGSGSGTSYSLTISSMEAEDAATYYCHQYERSPWTFGGGTKLEIKR
notes: Mouse monoclonal antibody (deposits KCTC 10514BP and KCTC 10515BP); also called Mouse antibody TSK114
Regarding B1, the dissociation constant Kd in assay [1] worked out at 140 pM. Besides, the “IC50 (concentration of the antibodies inhibiting cell death by 50%), WHEI 164 cells, MTT” value in assay [2] came to 4.7 ng/mL. In assay [3], the Kd came out at 5.79 pM, the koff is 2.39e-07 s⁻¹ and the kon stood at 41200 M⁻¹ s⁻¹.

B2: humanized antibody YHB1411 (antibody, V domains shown)
VH: QVQLVQSGPELKKPGASVKVSCKASGYTFTHYGMNWVRQAPGKGLEWMGWINTNTGEPRYDEEFKGRVTMTRDTSASTAYMELSSLRSEDTAVYYCARYDSRGFDCWGQGTTVTVSS
VL: QIVMTQSPSSLSASVGERVTITCTASSSISYNYFHWYQQKPGSAPKLWIYSSSNLASGVPSRFSGSGSGTDFTFTISSLQPEDIATYYCHQYERSPWTFGGGTKVEIKR
notes: Human heavy and kappa light constant regions come from pHAB-HC and pHAB-KC
B2: in assay [1], the Kd stood at 200 pM. Moreover, the “IC50 (concentration of the antibodies inhibiting cell death by 50%), WHEI 164 cells, MTT” value in assay [2] amounted to 6.7 ng/mL.

B3: humanized antibody YHB1406-2 (antibody, V domains shown)
VH: QVQLVQSGPELKKPGASVKVSCKASGYTFTHYGMNWVRQAPGKGLEWMGWINTNTGEPRYDEEFKGRVTMTRDTSASTAYMELSSLRSEDTAVYYCARYDSRGFDCWGQGTTLTVSS
VL: DIVMTQSPSSLSASVGERVTITCTASSSISYNYFHWYQQKPGSAPKLWIYSSSNLASGVPSRFSGSGSGTDFTFTISSLQPEDIATYYCHQYERSPWTFGGGTKVEIKR
notes: as for B2
Regarding B3, in assay [1], the Kd is 290 pM. The “IC50 (concentration of the antibodies inhibiting cell death by 50%), WHEI 164 cells, MTT” value in assay [2] was 6.5 ng/mL.

B4: humanized antibody YHB1406 (antibody, V domains shown)
VH: QVQLVQSGPELKKPGASVKVSCKASGYTFTHYGMNWVRQAPGQGLEWMGWINTNTGEPRYDEEFKGRVTMTRDTSASTAYMELSSLRSEDTAVYYCARYDSRGFDCWGQGTTVTVSS
VL: QIVMTQSPSSLSASVGERVTITCTASSSISYNYFHWYQQKPGSAPKLWIYSSSNLASGVPSRFSGSGSGTDFTFTISSLQPEDIATYYCHQYERSPWTFGGGTKVEIKR
notes: Human heavy chain constant region comes from vector pHAB-HC and human kappa light chain constant region from pHAB-KC
Turning to B4, in assay [1], the Kd amounted to 220 pM. Besides, the “IC50 (concentration of the antibodies inhibiting cell death by 50%), WHEI 164 cells, MTT” value in assay [2] turned out to be 9.2 ng/mL.

B5: humanized antibody YHB1411-2 (antibody, V domains shown)
VH: QVQLVQSGPELKKPGASVKVSCKASGYTFTHYGMNWVRQAPGKGLEWMGWINTNTGEPRYDEEFKGRVTMTRDTSASTAYMELSSLRSEDTAVYYCARYDSRGFDCWGQGTTVTVSS
VL: DIVMTQSPSSLSASVGERVTITCTASSSISYNYFHWYQQKPGSAPKLWIYSSSNLASGVPSRFSGSGSGTDFTFTISSLQPEDIATYYCHQYERSPWTFGGGTKVEIKR
notes: Human heavy and kappa light constant regions come from pHAB-HC and pHAB-KC; also called YBB1411-2
As to B5, the Kd in assay [1] was found to be 200 pM. Besides, the “IC50 (concentration of the antibodies inhibiting cell death by 50%), WHEI 164 cells, MTT” value in assay [2] was 5.5 ng/mL. Further, in assay [3], the Kd was 1.71 pM, the koff was 6.8e-08 s⁻¹ and the kon is 39600 M⁻¹ s⁻¹. Moreover, the “fold higher antigen binding affinity than mouse monoclonal antibody TSK114” value in assay [4] was approximately 3 fold.
